The data set addresses T1, Indicator molecule of Example 3 (synthetic peptide with MMP-9 sequence, HNE sequence, DNP, fluorescent label and terminal biotin via PEG).
T1 chain: GPQGIFGQGAAPVA

B1: human neutrophil elastase (HNE) (Lee biotech, 342-40) (protein)
chain: IVGGRRARPHAWPFMVSLQLRGGHFCGATLIAPNFVMSAAHCVANVNVRAVRVVLGAHNLSRREPTRQVFAVQRIFENGYDPVNLLNDIVILQLNGSATINANVQVAQLPAQGRRLGNGVQCLAMGWGLLGRNRGIASVLQELNVTVVTSLCRRSNVCTLVRGRQAGVCFGDSGSPLVCNGLIHGIASFVRGGCASGLYPDAFAPVAQFVNWIDSIIQ
Consider B1, for which the “detectable limit of the lateral flow cleavage assay” value is “approximately 62.5-125 ng/ml”.

These data come from patent US20150160219.
